# T1: PTPN13_1, Q12923
# T1 sequence (Q12923 1088-1188, limits assumed, looked up): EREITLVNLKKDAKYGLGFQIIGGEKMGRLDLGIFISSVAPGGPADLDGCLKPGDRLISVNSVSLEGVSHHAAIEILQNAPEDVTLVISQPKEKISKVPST
# T2: MPDZ_12, O75970
# T2 sequence (O75970 1857-1958, limits assumed, looked up): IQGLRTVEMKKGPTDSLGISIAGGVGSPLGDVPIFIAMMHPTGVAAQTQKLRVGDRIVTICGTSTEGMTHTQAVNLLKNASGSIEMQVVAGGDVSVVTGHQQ
# T3: RHPN1, Q8TCX5
# T3 sequence (Q8TCX5 508-602, limits assumed, looked up): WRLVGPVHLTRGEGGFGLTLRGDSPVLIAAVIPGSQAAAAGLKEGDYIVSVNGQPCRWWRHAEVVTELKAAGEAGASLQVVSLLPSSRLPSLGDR
# T4: SNTB1, Q13884
# T4 sequence (Q13884 107-205, limits assumed, looked up): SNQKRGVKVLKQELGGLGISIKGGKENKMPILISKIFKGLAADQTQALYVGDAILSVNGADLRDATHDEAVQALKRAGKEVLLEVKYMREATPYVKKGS
# T5: ARHGEF11, O15085
# T5 sequence (O15085 42-136, limits assumed, looked up): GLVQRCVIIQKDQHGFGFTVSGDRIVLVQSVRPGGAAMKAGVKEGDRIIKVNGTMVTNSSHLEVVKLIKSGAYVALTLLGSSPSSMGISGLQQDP
# T6: GRIP1_2, Q9Y3R0
# T6 sequence (Q9Y3R0 145-248, limits assumed, looked up): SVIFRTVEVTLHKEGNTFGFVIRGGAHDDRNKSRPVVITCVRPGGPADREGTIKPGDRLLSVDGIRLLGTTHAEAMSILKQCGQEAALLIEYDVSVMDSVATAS
# T7: RADIL, Q96JH8
# T7 sequence (Q96JH8 971-1071, limits assumed, looked up): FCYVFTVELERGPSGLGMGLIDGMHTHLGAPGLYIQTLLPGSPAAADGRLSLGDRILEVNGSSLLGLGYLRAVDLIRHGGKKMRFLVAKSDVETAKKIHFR
# T8: GRIP1_3, Q9Y3R0
# T8 sequence (Q9Y3R0 247-346, limits assumed, looked up): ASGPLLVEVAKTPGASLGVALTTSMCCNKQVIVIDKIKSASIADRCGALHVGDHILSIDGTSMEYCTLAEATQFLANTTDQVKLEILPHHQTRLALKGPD
# T9: SNTG2, Q9NY99
# T9 sequence (Q9NY99 68-166, limits assumed, looked up): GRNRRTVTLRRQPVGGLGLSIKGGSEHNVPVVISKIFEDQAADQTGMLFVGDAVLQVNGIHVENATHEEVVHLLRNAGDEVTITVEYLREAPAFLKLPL
# T10: APBA1_2, Q02410
# T10 sequence (Q02410 742-832, limits assumed, looked up): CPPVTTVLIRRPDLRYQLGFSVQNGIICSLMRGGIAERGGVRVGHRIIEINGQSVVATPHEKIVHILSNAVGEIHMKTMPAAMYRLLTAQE
# T11: LRRC7, Q96NW7
# T11 sequence (Q96NW7 1440-1537, limits assumed, looked up): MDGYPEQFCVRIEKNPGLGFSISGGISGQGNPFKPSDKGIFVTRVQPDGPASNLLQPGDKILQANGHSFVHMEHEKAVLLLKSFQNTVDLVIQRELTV
# T12: PDZRN3_1, Q9UPQ7
# T12 sequence (Q9UPQ7 244-349, limits assumed, looked up): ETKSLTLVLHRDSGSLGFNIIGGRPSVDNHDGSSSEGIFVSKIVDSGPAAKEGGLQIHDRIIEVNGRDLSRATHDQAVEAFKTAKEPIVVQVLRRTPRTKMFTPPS
# What was measured:
# Assay in all cases: holdup assay
# Design in all cases: key: below the threshold = too weak to quantify, mostly under pKd 3.1 to 4
# Conditions in all cases: plain residues with an end cap or a label only (N-terminal biotin on a linker: ado-ado)
# PTPN13_1, Q12923 = molecular target: T1, PTPN13_1, Q12923
# PARD3_3, Q8TEW0 = molecular target: PARD3_3, Q8TEW0
# MAGI2_5, Q86UL8 = molecular target: MAGI2_5, Q86UL8
# DLG4_2, P78352 = molecular target: DLG4_2, P78352
# NHERF4_2, Q86UT5 = molecular target: NHERF4_2, Q86UT5
# DLG1_1, Q12959 = molecular target: DLG1_1, Q12959
# SCRIB_3, Q14160 = molecular target: SCRIB_3, Q14160
# MPDZ_12, O75970 = molecular target: T2, MPDZ_12, O75970
# RHPN1, Q8TCX5 = molecular target: T3, RHPN1, Q8TCX5
# ARHGEF12, Q9NZN5-2 = molecular target: ARHGEF12, Q9NZN5-2
# SCRIB_1, Q14160 = molecular target: SCRIB_1, Q14160
# SNTB1, Q13884 = molecular target: T4, SNTB1, Q13884
# Inadl_10, Q8NI35 = molecular target: Inadl_10, Q8NI35
# ARHGEF11, O15085 = molecular target: T5, ARHGEF11, O15085
# MAGI2_3, Q86UL8 = molecular target: MAGI2_3, Q86UL8
# GRIP1_2, Q9Y3R0 = molecular target: T6, GRIP1_2, Q9Y3R0
# CASK, O14936 = molecular target: CASK, O14936
# RADIL, Q96JH8 = molecular target: T7, RADIL, Q96JH8
# GRIP1_3, Q9Y3R0 = molecular target: T8, GRIP1_3, Q9Y3R0
# Inadl_4, Q8NI35 = molecular target: Inadl_4, Q8NI35
# SNTG2, Q9NY99 = molecular target: T9, SNTG2, Q9NY99
# DLG5_1, Q8TDM6 = molecular target: DLG5_1, Q8TDM6
# APBA1_2, Q02410 = molecular target: T10, APBA1_2, Q02410
# LRRC7, Q96NW7 = molecular target: T11, LRRC7, Q96NW7
# PDZRN3_1, Q9UPQ7 = molecular target: T12, PDZRN3_1, Q9UPQ7
# DLG2_2, Q15700 = molecular target: DLG2_2, Q15700
# Chain of DLG2_2, Q15700 (Q15700 189-283): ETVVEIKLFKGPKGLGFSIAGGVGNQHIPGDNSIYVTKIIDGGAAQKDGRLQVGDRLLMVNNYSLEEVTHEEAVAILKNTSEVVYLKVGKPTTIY
# Chain of PARD3_3, Q8TEW0 (Q8TEW0 582-685): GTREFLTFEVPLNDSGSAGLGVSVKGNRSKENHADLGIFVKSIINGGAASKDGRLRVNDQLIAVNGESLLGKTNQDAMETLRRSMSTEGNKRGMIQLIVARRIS
# Chain of SCRIB_3, Q14160 (Q14160 999-1103): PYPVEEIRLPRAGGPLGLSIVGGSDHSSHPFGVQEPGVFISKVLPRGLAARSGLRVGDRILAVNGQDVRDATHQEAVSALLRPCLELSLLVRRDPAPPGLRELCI
# Chain of SCRIB_1, Q14160 (Q14160 718-814): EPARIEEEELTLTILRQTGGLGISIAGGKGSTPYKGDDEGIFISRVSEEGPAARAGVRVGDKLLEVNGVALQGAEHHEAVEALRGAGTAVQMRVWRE
# Chain of CASK, O14936 (O14936 487-570): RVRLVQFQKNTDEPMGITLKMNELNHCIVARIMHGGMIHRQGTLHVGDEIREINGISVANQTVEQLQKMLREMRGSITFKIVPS
# Chain of Inadl_10, Q8NI35 (Q8NI35 1673-1763): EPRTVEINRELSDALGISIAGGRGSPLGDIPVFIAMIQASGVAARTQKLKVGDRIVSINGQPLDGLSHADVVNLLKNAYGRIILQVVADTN
# Chain of NHERF4_2, Q86UT5 (Q86UT5 220-308): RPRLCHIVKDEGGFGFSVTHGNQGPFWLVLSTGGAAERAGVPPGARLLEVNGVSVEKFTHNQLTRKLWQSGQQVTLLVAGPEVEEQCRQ
# Chain of ARHGEF12, Q9NZN5-2 (Q9NZN5 other isoform, or with tags, fused parts or gaps): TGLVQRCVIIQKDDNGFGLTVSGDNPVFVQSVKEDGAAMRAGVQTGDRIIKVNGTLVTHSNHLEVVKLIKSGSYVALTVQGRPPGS
# Chain of DLG4_2, P78352 (P78352 155-259): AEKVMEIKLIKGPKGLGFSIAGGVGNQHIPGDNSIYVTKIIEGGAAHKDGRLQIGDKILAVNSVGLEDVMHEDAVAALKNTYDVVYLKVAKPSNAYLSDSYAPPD
# Chain of MAGI2_5, Q86UL8 (Q86UL8 915-1017): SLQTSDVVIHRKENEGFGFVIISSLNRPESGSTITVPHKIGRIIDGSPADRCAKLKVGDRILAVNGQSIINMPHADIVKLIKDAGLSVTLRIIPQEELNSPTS
# Chain of MAGI2_3, Q86UL8 (Q86UL8 600-682): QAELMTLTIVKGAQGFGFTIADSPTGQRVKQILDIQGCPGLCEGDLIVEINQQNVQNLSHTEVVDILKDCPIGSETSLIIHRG
# Chain of Inadl_4, Q8NI35 (Q8NI35 547-651): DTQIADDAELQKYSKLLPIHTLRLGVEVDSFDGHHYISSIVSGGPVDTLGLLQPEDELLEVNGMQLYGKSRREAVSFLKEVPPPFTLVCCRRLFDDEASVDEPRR
# Chain of DLG5_1, Q8TDM6 (Q8TDM6 617-713): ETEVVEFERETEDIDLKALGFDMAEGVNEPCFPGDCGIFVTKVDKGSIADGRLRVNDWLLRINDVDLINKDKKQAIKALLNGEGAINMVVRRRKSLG
Binder,"pKd (PTPN13_1, Q12923)","pKd (PARD3_3, Q8TEW0)","pKd (MAGI2_5, Q86UL8)","pKd (DLG4_2, P78352)","pKd (NHERF4_2, Q86UT5)","pKd (DLG1_1, Q12959)","pKd (SCRIB_3, Q14160)","pKd (MPDZ_12, O75970)","pKd (RHPN1, Q8TCX5)","pKd (ARHGEF12, Q9NZN5-2)","pKd (SCRIB_1, Q14160)","pKd (SNTB1, Q13884)","pKd (Inadl_10, Q8NI35)","pKd (ARHGEF11, O15085)","pKd (MAGI2_3, Q86UL8)","pKd (GRIP1_2, Q9Y3R0)","pKd (CASK, O14936)","pKd (RADIL, Q96JH8)","pKd (GRIP1_3, Q9Y3R0)","pKd (Inadl_4, Q8NI35)",further results
"CLREWCDAFL [BANF1, O75531]",3.58,4.43,below the threshold,below the threshold,below the threshold,below the threshold,4.03,3.67,below the threshold,below the threshold,below the threshold,below the threshold,below the threshold,3.49,below the threshold,below the threshold,3.52,3.85,below the threshold,below the threshold,"pKd (SNTG2, Q9NY99): below the threshold; pKd (DLG5_1, Q8TDM6): below the threshold; pKd (APBA1_2, Q02410): 3.75; pKd (LRRC7, Q96NW7): 3.84; pKd (PDZRN3_1, Q9UPQ7): below the threshold; pKd (DLG2_2, Q15700): below the threshold"
"PPYRHRNTVV [ERBB4, Q15303]",below the threshold,below the threshold,below the threshold,4.97,below the threshold,4.83,3.58,below the threshold,3.6,4.12,3.92,5,below the threshold,4.06,below the threshold,below the threshold,below the threshold,4.21,below the threshold,below the threshold,"pKd (SNTG2, Q9NY99): 3.89; pKd (DLG5_1, Q8TDM6): below the threshold; pKd (APBA1_2, Q02410): 3.53; pKd (LRRC7, Q96NW7): below the threshold; pKd (PDZRN3_1, Q9UPQ7): 3.54; pKd (DLG2_2, Q15700): 4.95"
"GSGAVEMESV [AQP6, Q13520]",below the threshold,below the threshold,below the threshold,below the threshold,below the threshold,below the threshold,below the threshold,below the threshold,below the threshold,below the threshold,below the threshold,below the threshold,below the threshold,below the threshold,below the threshold,below the threshold,below the threshold,3.56,below the threshold,below the threshold,"pKd (SNTG2, Q9NY99): below the threshold; pKd (DLG5_1, Q8TDM6): below the threshold; pKd (APBA1_2, Q02410): 3.58; pKd (LRRC7, Q96NW7): below the threshold; pKd (PDZRN3_1, Q9UPQ7): below the threshold; pKd (DLG2_2, Q15700): below the threshold"

# Now from value to binder, other results behind:
"pKd (PTPN13_1, Q12923)","pKd (PARD3_3, Q8TEW0)","pKd (MAGI2_5, Q86UL8)","pKd (DLG4_2, P78352)","pKd (NHERF4_2, Q86UT5)","pKd (DLG1_1, Q12959)","pKd (SCRIB_3, Q14160)","pKd (MPDZ_12, O75970)","pKd (RHPN1, Q8TCX5)","pKd (ARHGEF12, Q9NZN5-2)","pKd (SCRIB_1, Q14160)","pKd (SNTB1, Q13884)","pKd (Inadl_10, Q8NI35)","pKd (ARHGEF11, O15085)","pKd (MAGI2_3, Q86UL8)","pKd (GRIP1_2, Q9Y3R0)","pKd (CASK, O14936)","pKd (RADIL, Q96JH8)","pKd (GRIP1_3, Q9Y3R0)","pKd (Inadl_4, Q8NI35)",Binder,further results
below the threshold,below the threshold,below the threshold,below the threshold,below the threshold,below the threshold,4.32,below the threshold,3.92,4.66,4.36,below the threshold,below the threshold,3.74,below the threshold,below the threshold,below the threshold,below the threshold,below the threshold,below the threshold,"SARSRLSSNL [HCN2, Q9UL51]","pKd (SNTG2, Q9NY99): below the threshold; pKd (DLG5_1, Q8TDM6): below the threshold; pKd (APBA1_2, Q02410): below the threshold; pKd (LRRC7, Q96NW7): below the threshold; pKd (PDZRN3_1, Q9UPQ7): 3.63; pKd (DLG2_2, Q15700): below the threshold"
below the threshold,below the threshold,4.96,5.33,below the threshold,4.86,4.55,below the threshold,4.66,4.31,4.69,4.64,below the threshold,3.98,4.11,below the threshold,below the threshold,below the threshold,below the threshold,below the threshold,"RRISSLESEV [GRIN2C, Q14957]","pKd (SNTG2, Q9NY99): 4.24; pKd (DLG5_1, Q8TDM6): below the threshold; pKd (APBA1_2, Q02410): 3.75; pKd (LRRC7, Q96NW7): 4.05; pKd (PDZRN3_1, Q9UPQ7): 4.24; pKd (DLG2_2, Q15700): 5.11"

# — PMC9482650, “Quantitative fragmentomics allow affinity mapping of interactomes” (Nature Communications, 2022)
